Reference: PMC12070368 (ACS Applied Nano Materials, 2025)

Target: T1, Ebolavirus glycoprotein (EGP) of the Zaire strain (Zaire ebolavirus, UniProt Q05320 33-650)
T1 sequence: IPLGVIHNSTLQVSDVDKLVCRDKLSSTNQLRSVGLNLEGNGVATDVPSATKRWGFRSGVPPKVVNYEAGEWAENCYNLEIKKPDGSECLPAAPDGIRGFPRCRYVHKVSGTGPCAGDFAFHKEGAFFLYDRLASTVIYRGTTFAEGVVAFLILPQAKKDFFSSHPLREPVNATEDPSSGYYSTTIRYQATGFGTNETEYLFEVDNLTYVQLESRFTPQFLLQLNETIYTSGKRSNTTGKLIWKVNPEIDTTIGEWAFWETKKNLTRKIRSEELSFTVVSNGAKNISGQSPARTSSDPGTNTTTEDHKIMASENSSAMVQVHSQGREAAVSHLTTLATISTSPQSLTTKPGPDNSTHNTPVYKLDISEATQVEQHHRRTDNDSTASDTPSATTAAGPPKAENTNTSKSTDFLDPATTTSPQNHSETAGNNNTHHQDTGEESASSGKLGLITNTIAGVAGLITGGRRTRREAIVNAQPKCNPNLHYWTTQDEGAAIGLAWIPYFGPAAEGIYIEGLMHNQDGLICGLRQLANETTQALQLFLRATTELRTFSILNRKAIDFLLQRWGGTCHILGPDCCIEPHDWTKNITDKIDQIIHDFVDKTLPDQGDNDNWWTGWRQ
Settings: both partners purified

B1: TIM-1 (receptor, UniProt Q96D42 21-295, looked up)
chain: SVKVGGEAGPSVTLPCHYSGAVTSMCWNRGSCSLFTCQNGIVWTNGTHVTYRKDTRYKLLGDLSRRDVSLTIENTAVSDSGVYCCRVEHRGWFNDMKITVSLEIVPPKVTTTPIVTTVPTVTTVRTSTTVPTTTTVPMTTVPTTTVPTTMSIPTTTTVLTTMTVSTTTSVPTTTSIPTTTSVPVTTTVSTFVPPMPLPRQNHEPVATSPSSPQPAETHPTTLQGAIRREPTSSPLYSYTTDGNDTVTESSDGLWNNNQTQLFLEHSLLTANTTKG
ΔSPR: 35 nm
